Each block holds one binder with its values, some of them ahead of it.
Experiments:
[1] = target: Murine ALCAM (Mus musculus, UniProt Q61490); assay: cell-based or functional assay
[2] = target: T1, Human ALCAM (28–501)-6xhistidine tag (human, UniProt Q13740); assay: ELISA; CD6 competition ELISA: plate coated with hALCAM (5 µg/mL in PBS); fixed murine CD6-Fc (0.25 µg/mL) with antibody 2000 nM to 0.002 nM in PBS, 2 h RT; bound CD6-Fc detected with HRP-coupled antihuman IgG; details: both partners purified
T1 construct: human ALCAM, residues 28-501, all five extracellular immunoglobulin domains; also called hALCAM; source: CHO cells, in-house, purified (Ni-NTA agarose)

[3] = target: T2, Monkey ALCAM (Macaca fascicularis (cynomolgus monkey), UniProt G7NZQ8); assay: ELISA; plate coated with human, mouse, rat or monkey ALCAM (5 µg/mL in PBS); scFv V2D7 1:3 dilutions from 1000 nM to 0.051 nM in PBS, 2 h RT; detected with HRP-coupled protein A; details: both partners purified
T2 construct: cynomolgus monkey ALCAM, recombinant; also called cynomolgus monkey ALCAM; source: bought: R&D systems (10027-AL-100)

[4] = target: T3, Rat ALCAM (Rattus norvegicus, UniProt O35112); assay: as above; details: both partners purified
T3 construct: rat ALCAM, recombinant; source: bought: Sino Biological (80221-R08H-50)

[5] = target: T1, Human ALCAM (28–501)-6xhistidine tag; assay: ELISA; CD6 competition ELISA: plate coated with hALCAM (5 µg/mL in PBS); fixed murine CD6-Fc (0.25 µg/mL) with antibody 2000 nM to 0.002 nM in PBS, 2 h RT; bound CD6-Fc detected with HRP-coupled antihuman IgG; details: both partners purified; remark: listed apart in the source
[6] = target: T1, Human ALCAM (28–501)-6xhistidine tag; assay: SPR; BiaCore3000; CM5 chip coated with hALCAM at 800 RU; flow 10 µL/min; single-cycle, sequential injection of scFv at 30, 60, 120 and 240 nM; details: both partners purified
[7] = target: T4, Human ALCAM (28–501)-6xhistidine tag (human, UniProt Q13740 28-501); assay: ELISA; CD6 competition ELISA: plate coated with hALCAM (5 µg/mL in PBS); fixed murine CD6-Fc (0.25 µg/mL) with antibody 2000 nM to 0.002 nM in PBS, 2 h RT; bound CD6-Fc detected with HRP-coupled antihuman IgG; details: both partners purified
T4 construct: human ALCAM, residues 28-501, all five extracellular immunoglobulin domains; also called hALCAM; source: CHO cells, in-house, purified (Ni-NTA agarose)
T4 sequence (looked up): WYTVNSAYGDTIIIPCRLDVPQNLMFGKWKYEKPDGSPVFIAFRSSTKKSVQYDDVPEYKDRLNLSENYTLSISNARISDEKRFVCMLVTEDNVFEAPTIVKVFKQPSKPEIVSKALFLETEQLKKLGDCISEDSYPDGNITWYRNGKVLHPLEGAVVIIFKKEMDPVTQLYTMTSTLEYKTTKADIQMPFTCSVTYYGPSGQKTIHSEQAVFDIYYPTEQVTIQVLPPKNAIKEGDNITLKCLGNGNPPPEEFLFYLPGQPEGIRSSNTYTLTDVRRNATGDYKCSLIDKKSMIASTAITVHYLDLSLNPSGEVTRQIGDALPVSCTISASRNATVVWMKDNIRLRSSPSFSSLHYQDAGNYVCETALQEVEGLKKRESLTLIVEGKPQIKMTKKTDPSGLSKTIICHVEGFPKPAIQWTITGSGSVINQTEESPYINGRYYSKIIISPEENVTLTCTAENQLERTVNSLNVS

T3 sequence (O35112 28-527): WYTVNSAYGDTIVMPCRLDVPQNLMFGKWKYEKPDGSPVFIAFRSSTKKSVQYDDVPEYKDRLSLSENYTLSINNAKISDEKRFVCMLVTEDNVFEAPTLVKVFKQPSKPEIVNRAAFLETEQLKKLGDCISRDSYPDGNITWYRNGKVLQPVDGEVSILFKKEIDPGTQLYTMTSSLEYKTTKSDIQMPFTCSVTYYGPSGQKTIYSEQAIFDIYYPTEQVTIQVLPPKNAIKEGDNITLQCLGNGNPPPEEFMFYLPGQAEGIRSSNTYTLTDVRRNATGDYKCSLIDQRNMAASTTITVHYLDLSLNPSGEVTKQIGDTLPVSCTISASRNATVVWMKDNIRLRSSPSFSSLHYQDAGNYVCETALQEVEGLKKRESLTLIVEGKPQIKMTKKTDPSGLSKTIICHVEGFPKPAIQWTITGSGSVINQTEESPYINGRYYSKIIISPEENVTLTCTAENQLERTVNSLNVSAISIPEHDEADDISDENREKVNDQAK
Sequence of Murine ALCAM (Q61490 28-527): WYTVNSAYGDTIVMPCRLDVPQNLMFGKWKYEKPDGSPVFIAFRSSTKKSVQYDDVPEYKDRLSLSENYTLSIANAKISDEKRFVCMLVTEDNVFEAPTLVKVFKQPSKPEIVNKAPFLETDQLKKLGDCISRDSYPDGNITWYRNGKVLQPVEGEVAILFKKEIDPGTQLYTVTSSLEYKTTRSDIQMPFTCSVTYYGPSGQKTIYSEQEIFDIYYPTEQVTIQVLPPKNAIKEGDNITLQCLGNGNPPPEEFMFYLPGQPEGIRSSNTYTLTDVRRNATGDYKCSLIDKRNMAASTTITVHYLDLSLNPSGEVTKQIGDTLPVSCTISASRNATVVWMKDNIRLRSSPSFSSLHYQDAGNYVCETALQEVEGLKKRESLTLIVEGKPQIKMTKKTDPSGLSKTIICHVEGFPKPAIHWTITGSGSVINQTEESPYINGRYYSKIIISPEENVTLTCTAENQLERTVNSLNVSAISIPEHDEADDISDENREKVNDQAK

IC50 [2]: 20.7 ± 11.8 nM | binding result [3]: binds | binding result [4]: binds
B1: scFv V2D7 (scFv, V domains shown)
VH: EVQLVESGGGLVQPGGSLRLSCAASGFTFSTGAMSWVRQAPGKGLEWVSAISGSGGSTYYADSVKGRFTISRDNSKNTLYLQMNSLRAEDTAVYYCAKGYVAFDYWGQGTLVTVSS
VL: SSVLTQPPSVSVAPGQTARITCQGDSLRSGYASWYQQKPGQAPVLVVYGKNNRPSGIPERFSGSSSGNTATLTISRVEAGDEADYYCNSSPPFSAEVVFGGGTKLTVL
notes: VH of V2D7: as the VH of OPT with changed CDR1; linker; VL of V2D7: as the VL of OPT with changed CDR1; CDR1 QGDSLRSGYAS, CDR2 GKNNRPS, CDR3 NSSPPFSAEVV; also called V2D7 scFv; source: CHO cells, transient gene expression, purified (Protein A)
IC50 of DC transmigration across LEC monolayers (DC TM; blocks ALCAM–ALCAM between DCs and LECs) [1]: > 100 nM

fold improvement of Kd against scFv IF8 [6]: 2 fold
B4: scFv OPT (scFv, V domains shown)
VH: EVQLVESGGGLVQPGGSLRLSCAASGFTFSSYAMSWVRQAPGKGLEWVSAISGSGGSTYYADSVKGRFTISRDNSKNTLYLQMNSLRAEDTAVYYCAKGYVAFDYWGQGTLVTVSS
VL: SSVLTQPPSVSVAPGQTARITCQGDSLRSYYASWYQQKPGQAPVLVVYGKNNRPSGIPERFSGSSSGNTATLTISRVEAGDEADYYCNSSPPFSAEVVFGGGTKLTVL
notes: linker; CDR1 QGDSLRSYYAS, CDR2 GKNNRPS, CDR3 NSSPPFSAEVV; Only CDRs and linker are printed; also called framework-optimized scFv OPT; source: CHO cells, transient gene expression, purified (Protein A)

binding result [7]: binds
B6: Murine CD6-Fc (Fc fusion, mouse, UniProt Q61003 17-398, looked up)
chain: GLPSPAPSGQHKNGTIPNMTLDLEERLGIRLVNGSSRCSGSVKVLLESWEPVCAAHWNRAATEAVCKALNCGDSGKVTYLMPPTSELPPGATSGNTSSAGNTTWARAPTERCRGANWQFCKVQDQECSSDRRLVWVTCAENQAVRLVDGSSRCAGRVEMLEHGEWGTVCDDTWDLQDAHVVCKQLKCGWAVKALAGLHFTPGQGPIHRDQVNCSGTEAYLWDCPGRPGDQYCGHKEDAGVVCSEHQSWRLTGGIDSCEGQVEVYFRGVWSTVCDSEWYPSEAKVLCRSLGCGSAVARPRGLPHSLDGRMYYSCKGQEPALSTCSWRFNNSNLCSQSRAARVVCSGSQRHLNLSTSEVPSRVPVTIESSVPVSVKDKDSQGLT
notes: mouse CD6, recombinant Fc fusion; source: bought: R&D Systems (727-CD)

Kd [6]: 24.1 nM | IC50 [5]: 63.6 nM
B7: scFv IF8 (scFv, V domains shown)
VH: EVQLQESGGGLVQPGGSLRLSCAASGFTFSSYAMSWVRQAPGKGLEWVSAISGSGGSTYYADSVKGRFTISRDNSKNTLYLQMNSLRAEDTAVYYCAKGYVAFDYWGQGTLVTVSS
VL: SSELTQDPAVSVALGQTVRITCQGDSLRSYYASWYQQKPGQAPVLVIYGKNNRPSGIPDRFSGSSSGNTASLTITGAQAEDEADYYCNSSPPFSAEVVFGGGTKLTVL
notes: VH of IF8 (heavy chain DP47, ETH-2 library); VL of IF8 (light chain DPL16, ETH-2 library); CDR1 QGDSLRSYYAS, CDR2 GKNNRPS, CDR3 NSSPPFSAEVV; Only CDRs and linker are printed; also called IF8 scFv; parental scFv IF8; source: CHO cells, transient gene expression, purified (Protein A)

The next lines start with the binder.

B2: db V20C10NC (other)
VH: EVQLVESGGGLVQPGGSLRLSCAASGFTFSTGAMSWVRQAPGKGLEWVSAISGTGGTTYYADSVKGRFTISRDNSKNTLYLQMNSLRAEDTAVYYCAKGYVAFDYWGQGTLVTVSS
VL: SSVLTQPPSVSVAPGQTARITCQGDSLRSGYASWYQQKPGQAPVLVVYPKMSRPSGIPERFSGSSSGNTATLTISRVEAGDEADYYCNSSPPFSAEVVFGGGTKLTVL
notes: linker; Bivalent two-chain diabody; also called V20C10NC in db format; source: CHO cells, transient gene expression, purified (Protein A)
binding result [5]: binds

B3: scFv V20C10NC (scFv, V domains shown)
VH: EVQLVESGGGLVQPGGSLRLSCAASGFTFSTGAMSWVRQAPGKGLEWVSAISGTGGTTYYADSVKGRFTISRDNSKNTLYLQMNSLRAEDTAVYYCAKGYVAFDYWGQGTLVTVSS
VL: SSVLTQPPSVSVAPGQTARITCQGDSLRSGYASWYQQKPGQAPVLVVYPKMSRPSGIPERFSGSSSGNTATLTISRVEAGDEADYYCNSSPPFSAEVVFGGGTKLTVL
notes: VH of V20C10NC: as the VH of OPT with changed CDR1 and CDR2; linker; VL of V20C10NC: as the VL of OPT with changed CDR1 and CDR2; CDR1 QGDSLRSGYAS, CDR2 PKMSRPS, CDR3 NSSPPFSAEVV; Histidines in the CDR2 loops of clone V20C10 were mutated to threonine (VH) and serine (VL), giving V20C10NC; source: CHO cells, transient gene expression, purified (Protein A)
binding result [6]: binds

B5: scFv V200G1 (scFv, V domains shown)
VH: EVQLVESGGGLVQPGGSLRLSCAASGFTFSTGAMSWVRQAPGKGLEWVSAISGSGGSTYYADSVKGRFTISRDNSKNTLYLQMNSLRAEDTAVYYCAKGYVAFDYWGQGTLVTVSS
VL: SSVLTQPPSVSVAPGQTARITCQGDSLRSGYASWYQQKPGQAPVLVVYGKTGRPSGIPERFSGSSSGNTATLTISRVEAGDEADYYCNSSPPFSAEVVFGGGTKLTVL
notes: VH of V200G1: as the VH of V2D7, i.e. the VH of OPT with changed CDR1; linker; VL of V200G1: as the VL of OPT with changed CDR1 and CDR2; CDR1 QGDSLRSGYAS, CDR2 GKTGRPS, CDR3 NSSPPFSAEVV; source: CHO cells, transient gene expression, purified (Protein A)
binding result [6]: binds

Reference: publication PMC10385607, “Optimization and Characterization of Novel ALCAM-Targeting Antibody Fragments for Transepithelial Delivery” (Pharmaceutics, 2023)
